Target: F-actin (actin purified from rabbit white skeletal muscle, polymerised) (rabbit), P68135
Test: co-sedimentation; various concentrations of His-α-actinin in A50 buffer (50 mM HEPES-KOH pH 7.6, 50 mM KCl, 5 mM MgCl2, 1 mM EGTA) mixed with 10 μM G-actin on ice, 25°C for 60 min to polymerise actin, centrifuged at 100,000 ×g for 10 min at 25°C; supernatant and pellet on SDS-PAGE, Coomassie; model fitting; apparent dissociation constant
Settings: remark: other sources report otherwise

B1: Recombinant human α-actinin I (6×His-tagged), P12814 1-892 (natural protein)
chain: MDHYDSQQTNDYMQPEEDWDRDLLLDPAWEKQQRKTFTAWCNSHLRKAGTQIENIEEDFRDGLKLMLLLEVISGERLAKPERGKMRVHKISNVNKALDFIASKGVKLVSIGAEEIVDGNVKMTLGMIWTIILRFAIQDISVEETSAKEGLLLWCQRKTAPYKNVNIQNFHISWKDGLGFCALIHRHRPELIDYGKLRKDDPLTNLNTAFDVAEKYLDIPKMLDAEDIVGTARPDEKAIMTYVSSFYHAFSGAQKAETAANRICKVLAVNQENEQLMEDYEKLASDLLEWIRRTIPWLENRVPENTMHAMQQKLEDFRDYRRLHKPPKVQEKCQLEINFNTLQTKLRLSNRPAFMPSEGRMVSDINNAWGCLEQVEKGYEEWLLNEIRRLERLDHLAEKFRQKASIHEAWTDGKEAMLRQKDYETATLSEIKALLKKHEAFESDLAAHQDRVEQIAAIAQELNELDYYDSPSVNARCQKICDQWDNLGALTQKRREALERTEKLLETIDQLYLEYAKRAAPFNNWMEGAMEDLQDTFIVHTIEEIQGLTTAHEQFKATLPDADKERLAILGIHNEVSKIVQTYHVNMAGTNPYTTITPQEINGKWDHVRQLVPRRDQALTEEHARQQHNERLRKQFGAQANVIGPWIQTKMEEIGRISIEMHGTLEDQLSHLRQYEKSIVNYKPKIDQLEGDHQLIQEALIFDNKHTNYTMEHIRVGWEQLLTTIARTINEVENQILTRDAKGISQEQMNEFRASFNHFDRDHSGTLGPEEFKACLISLGYDIGNDPQGEAEFARIMSIVDPNRLGVVTFQAFIDFMSRETADTDTADQVMASFKILAGDKNYITMDELRRELPPDQAEYCIARMAPYTGPDSVPGALDYMSFSTALYGESDL
Kd: 1400 nM
